Source: publication PMC10096250, “Combined action of albumin and heparin regulates lipoprotein lipase oligomerization, stability, and ligand interactions” (PLOS ONE, 2023)
Blank lines part the entries; values can stand above or below the binder they belong to.

B2: Bovine lipoprotein lipase (enzyme, UniProt P11151 29-478, looked up)
chain: DRITGGKDFRDIESKFALRTPEDTAEDTCHLIPGVTESVANCHFNHSSKTFVVIHGWTVTGMYESWVPKLVAALYKREPDSNVIVVDWLSRAQQHYPVSAGYTKLVGQDVAKFMNWMADEFNYPLGNVHLLGYSLGAHAAGIAGSLTNKKVNRITGLDPAGPNFEYAEAPSRLSPDDADFVDVLHTFTRGSPGRSIGIQKPVGHVDIYPNGGTFQPGCNIGEALRVIAERGLGDVDQLVKCSHERSVHLFIDSLLNEENPSKAYRCNSKEAFEKGLCLSCRKNRCNNMGYEINKVRAKRSSKMYLKTRSQMPYKVFHYQVKIHFSGTESNTYTNQAFEISLYGTVAESENIPFTLPEVSTNKTYSFLLYTEVDIGELLMLKLKWISDSYFSWSNWWSSPGFDIGKIRVKAGETQKKVIFCSREKMSYLQKGKSPVIFVKCHDKSLNRKSG
notes: lipoprotein lipase (LPL), bovine, purified from bovine milk; In the RICS experiments 10 nM of the LPL carried ATTO610 (NHS ester labelling) and 190 nM was unlabelled; it says that most experiments were done with bovine LPL; also called bLPL; bovine LPL; source: purified from bovine milk

Columns and labels:
[1] = biological target: B2; assay: cell-based or functional assay
Human serum albumin = biological target: T1, Human serum albumin (human, UniProt P02768 25-609); assay: SPR; nANGPTL4 immobilised; HSA at various concentrations flowed over; plateau values plotted against HSA concentration after subtracting non-specific binding; conditions: both partners purified
T1 construct: serum albumin, human; also called HSA
T1 sequence (P02768 25-609): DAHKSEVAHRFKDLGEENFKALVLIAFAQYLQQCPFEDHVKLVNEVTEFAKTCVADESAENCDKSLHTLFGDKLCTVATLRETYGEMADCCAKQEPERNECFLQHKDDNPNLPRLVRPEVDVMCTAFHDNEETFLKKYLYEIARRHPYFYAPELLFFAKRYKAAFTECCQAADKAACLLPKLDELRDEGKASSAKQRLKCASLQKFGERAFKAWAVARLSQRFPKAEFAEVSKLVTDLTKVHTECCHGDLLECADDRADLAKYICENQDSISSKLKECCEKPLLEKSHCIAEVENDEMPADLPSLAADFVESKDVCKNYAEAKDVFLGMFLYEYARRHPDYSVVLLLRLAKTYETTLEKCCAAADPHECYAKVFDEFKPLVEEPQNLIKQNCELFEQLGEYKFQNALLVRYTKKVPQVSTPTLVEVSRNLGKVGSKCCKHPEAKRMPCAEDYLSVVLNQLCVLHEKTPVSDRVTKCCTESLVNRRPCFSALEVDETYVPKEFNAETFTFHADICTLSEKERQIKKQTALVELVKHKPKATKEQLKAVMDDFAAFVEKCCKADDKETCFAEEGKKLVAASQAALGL

Bovine serum albumin [2] = biological target: T2, Bovine serum albumin (bovine, UniProt P02769 25-607); assay: not stated; equilibrium dissociation constant of the LPL-albumin complex as given in the introduction; experiment not named
T2 construct: serum albumin, bovine; also called BSA; source: bought: Sigma Aldrich (#A7906)
T2 sequence (P02769 25-607): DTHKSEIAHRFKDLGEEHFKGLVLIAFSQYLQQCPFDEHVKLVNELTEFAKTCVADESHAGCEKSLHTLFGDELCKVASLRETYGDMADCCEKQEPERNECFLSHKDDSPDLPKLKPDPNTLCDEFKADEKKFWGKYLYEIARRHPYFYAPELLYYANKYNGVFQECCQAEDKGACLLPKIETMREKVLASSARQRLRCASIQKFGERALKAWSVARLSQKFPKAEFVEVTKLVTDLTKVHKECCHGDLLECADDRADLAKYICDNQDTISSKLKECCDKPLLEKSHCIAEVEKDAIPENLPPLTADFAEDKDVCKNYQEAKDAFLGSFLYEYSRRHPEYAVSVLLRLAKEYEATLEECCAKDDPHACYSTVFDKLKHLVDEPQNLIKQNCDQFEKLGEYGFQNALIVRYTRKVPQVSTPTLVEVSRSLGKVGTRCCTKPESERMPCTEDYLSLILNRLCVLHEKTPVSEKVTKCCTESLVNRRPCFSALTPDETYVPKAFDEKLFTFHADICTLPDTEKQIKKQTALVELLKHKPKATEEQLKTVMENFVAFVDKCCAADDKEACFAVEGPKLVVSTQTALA

Bovine serum albumin [3] = biological target: T2, Bovine serum albumin; assay: ITC; 752 μM BSA in the syringe titrated (38 injections) into 1.695 μM bLPL with 10 IU/ml heparin; 20 mM HEPES, 150 mM NaCl, pH 7.4; 25°C; apparent KD of the initial binding phase; conditions: both partners purified
[4] = biological target: B2

inactivation rate constant (ki) of LPL by 100 nM nANGPTL4 during lipolysis of CM/VLDL (ITC), at 10 or 50 mg/ml BSA against 2 mg/ml BSA [1]: ~1.6 fold
Kd (Human serum albumin): 500 ± 51 µM
B1: Recombinant N-terminal domain of ANGPTL4 (nANGPTL4^26-184) (domain or fragment, UniProt Q9BY76 26-184, looked up)
chain: GPVQSKSPRFASWDEMNVLAHGLLQLGQGLREHAERTRSQLSALERRLSACGSACQGTEGSTDLPLAPESRVDPEVLHSLQTQLKAQNSRIQQLFHKVAQQQRHLEKQHLRIQHLQSQFGLLDHKHLDHEVAKPARRKRLPEMAQPVDPAHNVSRLHRL
notes: angiopoietin-like protein 4 (ANGPTL4), N-terminal domain, residues 26-184

Binder: B2
Kd (Bovine serum albumin [2]): 30 to 70 µM
Kd (Bovine serum albumin [3]): 12.6 µM

residual LPL activity (ITC, human plasma) after 130 min of 200 nM LPL with 1 μM ANGPTL4 in the presence of both heparin and BSA [4]: 35%
residual LPL activity (ITC, human plasma) after 130 min of 200 nM LPL with 1 μM ANGPTL4 in the presence of heparin or BSA alone [4]: 55%
B3: Full-length ANGPTL4 (natural protein)
chain: GPVQSKSPRFASWDEMNVLAHGLLQLGQGLREHAERTRSQLSALERRLSACGSACQGTEGSTDLPLAPESRVDPEVLHSLQTQLKAQNSRIQQLFHKVAQQQRHLEKQHLRIQHLQSQFGLLDHKHLDHEVAKPARRKRLPEMAQPVDPAHNVSRLHRLPRDCQELFQVGERQSGLFEIQPQGSPPFLVNCKMTSDGGWTVIQRRHDGSVDFNRPWEAYKAGFGDPHGEFWLGLEKVHSITGDRNSRLAVQLRDWDGNAELLQFSVHLGGEDTAYSLQLTAPVAGQLGATTVPPSGLSVPFSTWDQDHDLRRDKNCAKSLSGGWWFGTCSHSNLNGQYFRSIPQQRQKLKKGIFWKTWRGRYYPLQATTMLIQPMAAEAAS
